First the molecules themselves.
B1: 226F9 (antibody, V domains shown)
VH: QVQLVQSGAEVKKPGASVKVSCKASGYTFTGYYIHWVRQAPGQGLEWMGWINPYSGDTKYAQKFQGRVTMTRATSISTAYMELSRLRFDDTAVFYCARDWGGYSSYYYGMDVWGQGTTVTVSS
VL: DIVMTQTPLSLSVTPGQPASISCKSSQSLLHSDGKTFLYWYLQKPGQPPQLLIYEISNRFSGVPDRFSGSGSGTDFTLKISRVEAEDVGIYYCMQSTQLPRTFGQGTKVEIK
notes: hybridoma mAb
B2: 176H4 (antibody, V domains shown)
VH: QVQLVESGGGVVQPGRSLRLSCAASGFTFSSYGMHWVRQAPGKGLEWVAIIWYDGSYKYYADSVKGRFTISRDNSKNTLYLQMSSLRAEDTAVYYCARDAHDFWSGYFAYWGQGALVTVSS
VL: B1 VL with S32G, F37Y, I56V, T97I, L99I, R101W, K108R
notes: hybridoma mAb
B3: 224G1 (antibody, V domains shown)
VH: B1 VH with K59N, A73D
VL: B1 VL with S26G, Y39S, Y91F
notes: hybridoma mAb
B4: 227C1 (antibody, V domains shown)
VH: B1 VH with I34T, D57G, K59N, A73D, F94Y
VL: B1 VL
notes: hybridoma mAb
B5: 227F2 (antibody, V domains shown)
VH: B1 VH with Q3H, A73D
VL: B1 VL
notes: hybridoma mAb
B6: 202A3 (antibody, V domains shown)
VH: QVQLEQSGAEVKKPGASVKVSCKASGYTFTSYDINWVRQATGQGLEWLGWMNPKRGNTGYAQKFQGRVTMTRNTSISTAHMELSSLRSEDTAVYYCARGRYSREDYYYYYDMDVWGQGTTVTVSS
VL: DIQMSQSPSSLSASVGDRVTITCRASQGIRNDLGWYQQKPGKAPKRLICAASRLQSGVPSRFSGSGSGTEFTLTISSLQPEDFAIYYCLQHHDYPFTFGPGTKVDIK
notes: hybridoma mAb
B7: 65C12 (antibody, V domains shown)
VH: EVQLVESGGGLVKPGGSLRLSCAASGFTFRSFSLNWVRQAPGKGLEWVSSISSSSSYIYYADSVKGRFTISRDNAKNSLYLQMNSLRAEDTAVYYCARDAYSHYWGQGTLVTVSS
VL: EIVMTQSPATLSVFPGEGATLSCRASQSVSINLAWYQQKPGQAPRLLIYGASTRATGIPARFNASGSGTEFTLSISSLQSENFAVYYCQQYNTWPLTFGGGTKVEIK
notes: hybridoma mAb
B8: 196F4 (antibody, V domains shown)
VH: EVQLLESGGGLVQPGGSLRFSCAASGFTFSSCAMTWVRQAPGKGLEWVSAISGSGGSTYYADSVKGRFTISRDNSKNTLYLQMNSLRAEDTAVYYCAKVGGLTGSYYYYGMDVWGQGTTVTVSS
VL: DFQMIQSPSSLSASVGDRVTITCRASQRIHSYLNWYQQKPGKAPKLLIYTASSLQGGVPSRFSGSGSGTDFTLTISSLQPEDFATYYCQQSYGSPLTFGGGTKVEIK
notes: hybridoma mAb
B9: 198D2 (antibody, V domains shown)
VH: QVQLVESGGGVVQPGRSLRLSCAASGFTFRSYGMHWVRQAPGKGLEWVAVIIYDGSYKYYADSVKGRFTISRDNSKNTLYLQMNSLRAEDTAVYYCARTYSGGMDVWGQGTTVTVSS
VL: QSVLTQPPSVSAAPGQKVTISCSGSSSNIGSNYVSWYQQLPGTAPKVLIYDNNKRPSGIPDRFSGSKSGTSATLGITGLQTGDEADYYCGTWDSRLNVGVFGGGTKLTVL
notes: hybridoma mAb
B10: 194C10 (antibody, V domains shown)
VH: QVQLQQWGAGLLKPSETLSLTCAVSGGSFRYYYWSWIRQPPGKGLEWFGEINHSGSTNYNPSLKSRVTISIDTSKNQFSLKLRSVTAADTAVYYCARDYGAFDIWGQGTMVTVSS
VL: EIVLTQSPGTLSLSPGERATLSCRASPSVNSGYLAWYQQKPGQTPRLLIFGASSRATGIPDRFSASGSGADFTLTISRLEPEDFAVYFCQQYESSPWTFGQGTKVEIK
notes: hybridoma mAb
B11: 52D10 (antibody, V domains shown)
VH: QVQLVESGGGVVQPGRSLRLSCAASGFTFSSYGMHWVRQAPGKGLEWVALIWYDGSNKYHADSVKGRFTISRDNSKNTLYLQMNSLRAEDTAVYYCARRYSSSWSGGMDVWGQGTTVTVSS
VL: DVMMTQIPLSLSVTPGQPASISCKSSQSLLHSEGKTYLYWYLQKPGQPPQLLIFEVSNRVSGVPDRFSGRGSGTDFTLKISRVEAEDVGVYYCMQSIQYPITFGQGTRLEIK
notes: hybridoma mAb
B12: 5E5 (antibody, V domains shown)
VH: QVQLVESGGGVVQPGRSLRLSCAASGFTFSNYVMHWVRQAPGKGLEWVAVIWYDGSNKYYADSVKGRFTISRDNSKNTLYLQMNSLRAEDTAVYYCTREVYSSGWYDYGMDVWGQGTTVTVSS
VL: B6 VL with S5T, C49Y, R53S, I85T, H92Y, D93S, F96R, P100Q, D105E, I106V
B13: 7G4 (antibody, V domains shown)
VH: B12 VH with S30N, N84T, T97A, V100K, G104N
VL: DIQMTQSPSSLSASVGDRVTITCRASQGIRNDLGWYQQRPGKAPKRLIYAASSLQSGVPSRFSGSGSGTEFTLTISSLQPEDSATYYCLHQYSYPRTFGQGTKVEIK
B14: 6G7 (antibody, V domains shown)
VH: QVQLVESGGGVVQPGRSLRLSCAASGFTFSSYGMHWVRQTPGKGLEWVAIISYVGKNKYYADSVKGRFTISRDNSKNTLYLQMNSLRAEDTAVYYCARRGNSYGGYGMDVWGQGTTVTVSS
VL: DIQMTQSPSSRSASVGDRVTITCQASQDISNYLNWCQQKPGKALKLLIYDASTLETGVPSRFSGSGSGTDFTFTISSVQPEDIATYYCQQYDNVPITFGQGTRLEIK

We go through 14 molecules from patent publication US20190248902A1 (published 2019).

Changes are numbered by the printed parent chain.

The term % Inhibition denotes the change of the read-out against control, counted positive when it falls. In general, IC50 refers to the point on the concentration scale where inhibition reaches its midpoint. A higher IC50 goes with a need for much substance.

For the first test, the target named is T1, recombinant, soluble human ASGR-1 (human, UniProt P07306 62-291).
T1 construct: biotinylated in the binning assay; also called soluble huASGR-1; Soluble ASGR-1 (Amgen)
T1 sequence: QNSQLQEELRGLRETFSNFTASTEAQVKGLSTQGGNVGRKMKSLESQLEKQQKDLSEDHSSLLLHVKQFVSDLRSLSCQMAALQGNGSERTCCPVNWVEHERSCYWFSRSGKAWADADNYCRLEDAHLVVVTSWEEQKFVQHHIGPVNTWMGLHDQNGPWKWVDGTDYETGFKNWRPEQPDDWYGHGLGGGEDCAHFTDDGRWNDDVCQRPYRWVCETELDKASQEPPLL
Kind of test: Octet BLI dissociation, pH 7.4 minus calcium. The procedure, abridged:
(§1)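 Antibodies were captured on anti-human Fc biosensors, and soluble ASGR-1 (6 ug/ml) was associated for 2 min in Tris buffer containing 1 mM CaCl2 at pH 7.4, followed by 10 min dissociation under each test condition. The signal at the end of association was set as 100%. Percent ASGR-1 still bound after 1 min of dissociation was compared with the pH 7.4 plus calcium control, and >10% extra dissociation was scored as sensitive.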
With B1, the “% Change Compared to pH 7.4 + Calcium” value turned out to be 100%.
The same measure, in the same setting: as for B2, the figure is 2%.
For the molecule B3, the “% Change Compared to pH 7.4 + Calcium” value was found to be 77%.
Turning to B4, the “% Change Compared to pH 7.4 + Calcium” value is 100%.
The same measure, in the same setting: to B5 belongs 80%; to B6, -21%; to B7, 13%.
Still for that read-out and setting: to B8 belongs -8%.
Still for that read-out and setting: as for B9, the figure is -8%; as for B10, 2%.
Regarding B11, the “% Change Compared to pH 7.4 + Calcium” value worked out at 21%.

The target in a further test is T2, human ASGR-1 (human, UniProt P07306 1-291).
T2 construct: Stably expressed on CHO-S cells (CHO-S:huASGR-1); The method text says human or mouse ASGR-1 cells were used; also called huASGR-1; hASGR-1
T2 sequence: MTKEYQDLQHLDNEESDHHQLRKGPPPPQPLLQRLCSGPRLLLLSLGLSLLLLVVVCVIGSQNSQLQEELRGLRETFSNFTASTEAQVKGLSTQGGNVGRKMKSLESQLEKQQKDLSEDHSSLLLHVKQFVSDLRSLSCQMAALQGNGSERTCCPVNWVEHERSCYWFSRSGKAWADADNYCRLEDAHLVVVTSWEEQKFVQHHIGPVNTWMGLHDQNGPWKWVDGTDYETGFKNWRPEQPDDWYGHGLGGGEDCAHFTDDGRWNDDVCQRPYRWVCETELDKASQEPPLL
Kind of test: FACS ligand blocking on CHO-S ASGR-1 cells; competitor biotinylated asialofetuin. The protocol: (§2) All ASGR-1 antibodies that bound either human or mouse ASGR-1 stable CHO—S cells were then tested for ligand blocking using both a protein ligand and a synthetic sugar ligand. The method in brief is as follows: first, 20 ul of either CHO-Shuman or mouse ASGR-1 cells were added to wells of a 384 well plate (30 k cells/well) followed by spin and discarding the supernatant. Second, 10 ul of the antibodies (either purified from hybridoma supernatants or made recombinantly) were added in duplicate to the cells in a dilution series (200 nM top concentration, 1:2 serial dilution, 11 point curve) and were incubated for 30 min at 4 C. […] After 30 min incubation at 4C, the plate was spun and washed twice with FACS buffer+1 mM CaCl2 followed by the detection streptavidin-AF647 at 1:1000 dilution. After 30 min at 4C, the cells were spun and washed once and then 60 ul PI added at 1:1000 dilution and the plates delivered to a core flow cytometry facility. The plates were read and processed similarly to the cell binding method except the signal now represents an inhibition curve and typically decreases a function of increasing antibody concentration. IC50 nM potency and % Inhibition were reported. […] Differences in the ability of antibodies to block these two ligands could occur as a result of differences in, for example, avidity stemming from differences in the number and/or orientation of the ASGR binding terminal sugar residues of each ligand, steric hindrance between antibody and each ligand, and/or changes in the conformation of ASGR induced by antibody binding that selectively alters the binding of each ligand.
B12: the “% Inhibition” value was found to be 95%.
On to B13, for which the “% Inhibition” value amounted to 96% and the IC50 was determined as 14 nM.
On to B14, for which the “% Inhibition” value was found to be 99% and the IC50 was 11 nM.

Another test has as its target T1, recombinant, soluble human ASGR-1. As to the kind of experiment: Octet BLI dissociation, pH 5.6 minus calcium. Put shortly:
as §1
A general note: In BLI a coated tip is dipped into the sample, and binding shifts an interference pattern.
With B1, the “% Change Compared to pH 7.4 + Calcium” value was 77%.
With B2, the “% Change Compared to pH 7.4 + Calcium” value was 26%.
The same measure, in the same setting: as for B3, the figure is 65%.
Still for that read-out and setting: to B4 belongs 73%; to B5, 100%.
Take B6: the “% Change Compared to pH 7.4 + Calcium” value is -23%.
Still for that read-out and setting: to B7 belongs 23%.
Take B8: the “% Change Compared to pH 7.4 + Calcium” value is -6%.
Take B9: the “% Change Compared to pH 7.4 + Calcium” value is -28%.
Still for that read-out and setting: as for B10, the figure is 16%; as for B11, 45%.

The next test has the same target. Kind of test: Octet BLI dissociation, pH 5.6 plus calcium. The procedure, abridged: as §1
For the molecule B1, the “% Change Compared to pH 7.4 + Calcium” value was determined as 51%.
Turning to B2, the “% Change Compared to pH 7.4 + Calcium” value is -4%.
On the same count and under the same terms, to B3 belongs 41%; to B4, 54%.
On the same count and under the same terms, to B5 belongs 50%; to B6, -22%.
Same read-out and setting: as for B7, the figure is 0%; as for B8, -5%.
For the molecule B9, the “% Change Compared to pH 7.4 + Calcium” value is -30%.
Regarding B10, the “% Change Compared to pH 7.4 + Calcium” value worked out at 10%.
The same measure, in the same setting: to B11 belongs 3%.

The next test has as its target T2, human ASGR-1. Kind of test: FACS ligand blocking on CHO-S ASGR-1 cells; labelled ligand biotin-GalNAc-PAA (synthetic sugar). The protocol: as §2
Regarding B12, the “% Inhibition” value was 0%.
Turning to B13, the “% Inhibition” value is -30% and the IC50 is 20 nM.
Taken in the same sequence, the figures for B14 were 0% and more than 200 nM.
